# According to patent US20080160570:
# B1: UBP1ΔC2 (UBP1 protease mutant) (protein)
# chain: GGFIAGLVNDGNTCFMNSVLQSLASSRELMEFLDNNVIRTYEEIEQNEHNEEGNGQESAQDEATHKKNTRKGGKVYGKHKKKLNRKSSSKEDEEKSQEPDITFSVALRDLLSALNAKYYRDKPYFKTNSLLKAMSKSPRKNILLGYDQEDAQEFFQNILAELESNVKSLNTEKLDTTPVAKSELPDDALVGQLNLGEVGTVYIPTEQIDPNSILHDKSIQNFTPFKLMTPLDGITAERIGCLQCGENGGIRYSVFSGLSLNLPNENIGSTLKLSQLLSDWSKPEIIEGVECNRCALTAAHSHLFGQLKEFEKKPEGSIPEKPINAVKDRVHQIEEVLAKPVIDDEDYKKLHTANMVRKCSKSKQILISRPPPLLSIHINRSVFDPRTYMIRKNNSKVLFKSRLNLAPWCCDINEINLDARLPMSKKEKAAQQDSSEDENIGGEYYTKLHERFEQEFEDSEEEKEYDDAEGNYASHYNHTKDISNYDPLNGEVDGVTSDDEDEYIEETDALGNTIKKRIIEHSDVENENVKDNEELQEIDNVSLDEPKINVEDQLETSSDEEDVIPAPPINYARSFSTVPATPLTYSLRSVIVHYGTHNYGHYIAFRKYRGCWWRISDETVYVVDEAEVLSTPGVFMLFYEYDFDEETGKMKDDLEAILSNNEEDDEKEQEQKGVQEPKESQEQGEGEEQEEGQEQMKFERTEDHRDISGKDVNGSHHHHHH
# B2: UBP1ΔC (UBP1 protease mutant) (protein)
# chain: GGDHLNYIWESWSEMTTNFRNNNSLSRWLPRSKFTHLDEEILKRGGFIAGLWNDGNTCFMNSWLQSLASSRELMEFLDNNWIRTYEEIEQNEHNEEGNGQESAQDEATHKKNTRKGGKWYGKHKKKLNRKSSSKEDEEKSQEPDITFSWALRDLLSALNAKYYRDKPYFKTNSLLKAMSKSPRKNILLGYDQEDAQEFFQNILAELESNWKSLNTEKLDTTPWAKSELPDDALWGQLNLGEWGTWYIPTEQIDPNSILHDKSIQNFTPFKLMTPLDGITAERIGCLQCGENGGIRYSWFSGLSLNLPNENIGSTLKLSQLLSDWSKPEIIEGWECNRCALTAAHSHLFGQLKEFEKKPEGSIPEKPINAWKDRWHQIEEWLAKPWIDDEDYKKLHTANMWRKCSKSKQILISRPPPLLSIHINRSWFDPRTYMIRKNNSKWLFKSRLNLAPWCCDINEINLDARLPMSKKEKAAQQDSSEDENIGGEYYTKLHERFEQEFEDSEEEKEYDDAEGNYASHYNHTKDISNYDPLNGEWDGWTSDDEDEYIEETDALGNTIKKRIIEHSDWENENWKDNEELQEIDNWSLDEPKINWEDQLETSSDEEDWIPAPPINYARSFSTWPATPLTYSLRSWIWHYGTHNYGHYIAFRKYRGCWWRISDETWYWWDEAEWLSTPGWFMLFYEYDFDEETGKMKDDLEAILSNNEEDDEKEQEQKGWQEPKESQEQGEGEEQEEGQEQMKFERTEDHRDISGKDWNGSHHHHHH
# Biological target: fusion protein ubiquitin-growth hormone (hybrid polypeptide)
# Sequence (chain, as listed by the source): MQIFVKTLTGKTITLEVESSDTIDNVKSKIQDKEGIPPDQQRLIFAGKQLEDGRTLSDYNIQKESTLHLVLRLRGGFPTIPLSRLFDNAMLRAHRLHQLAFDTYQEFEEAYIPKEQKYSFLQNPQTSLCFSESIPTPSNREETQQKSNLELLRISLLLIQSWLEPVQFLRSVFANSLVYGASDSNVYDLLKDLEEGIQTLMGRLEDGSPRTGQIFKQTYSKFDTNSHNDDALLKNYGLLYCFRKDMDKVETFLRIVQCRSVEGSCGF
row,Protein,"enzymatic cleavage of the carrier protein ubiquitin from growth hormone (37° C., 1 h); amount of fusion protein per amount of enzyme"
1,B1,UBP1Δ C 2 1 µg-60 µg protein
2,B2,UBP1Δ C 1 µg-14 µg protein
